Experiment [1] deals with fibronectin-collagen interactions (Homo sapiens, UniProt P02751). Kind of experiment: Blocking of fibronectin-collagen interactions in cell culture. In kind it is cell-based. The following applies: cell culture experiments.
The test system of another experiment is human saphenous veins. The experiment in a line: Ex vivo cultured human saphenous veins, intimal thickening. The following applies: 10× higher levels than 100-500 nM. On the procedure: Saphenous veins were cut into 0.5 cm segments, and processed immediately (●) or cultured in 10% FBS/M199 containing 15 μM control III-11c peptide (▪) or pUR4 (▴) at 37° C. for 14 days. Veins were fixed, paraffin embedded, sectioned, and stained. Morphometric analysis was performed on six randomly chosen sections using Image-Pro Plus software. The intima/media ratio was determined by dividing intima area by media area. Paired student t-test was used to analyze the data. Data are expressed as mean±S.E.M. *p<0.05.
Human saphenous veins cultured in serum containing media develop intimal hyperplasia after 14 days in culture (Soyombo et al., “Intimal Proliferation in an Organ Culture of Human Saphenous Vein,” Am J Pathol. 137(6):1401-1410 (1990); Angelini et al., “Smooth Muscle Cell Proliferation in Response to Injury in an Organ Culture of Human Saphenous Vein,” Eur J Vasc Surg. 5(1):5-12 (1991); and Slomp et al., “Nature and Origin of the Neointima in Whole Vessel Wall Organ Culture of the Human Saphenous Vein,” Virchows Arch. 428(1):59-67 (1996), which are hereby incorporated by reference in their entirety). This system thus provides an ex vivo model system for studying mechanisms that lead to intimal hyperplasia that has distinct advantages over in vitro culture systems. […]

fibronectin-collagen interactions, sequence (P02751 32-2477): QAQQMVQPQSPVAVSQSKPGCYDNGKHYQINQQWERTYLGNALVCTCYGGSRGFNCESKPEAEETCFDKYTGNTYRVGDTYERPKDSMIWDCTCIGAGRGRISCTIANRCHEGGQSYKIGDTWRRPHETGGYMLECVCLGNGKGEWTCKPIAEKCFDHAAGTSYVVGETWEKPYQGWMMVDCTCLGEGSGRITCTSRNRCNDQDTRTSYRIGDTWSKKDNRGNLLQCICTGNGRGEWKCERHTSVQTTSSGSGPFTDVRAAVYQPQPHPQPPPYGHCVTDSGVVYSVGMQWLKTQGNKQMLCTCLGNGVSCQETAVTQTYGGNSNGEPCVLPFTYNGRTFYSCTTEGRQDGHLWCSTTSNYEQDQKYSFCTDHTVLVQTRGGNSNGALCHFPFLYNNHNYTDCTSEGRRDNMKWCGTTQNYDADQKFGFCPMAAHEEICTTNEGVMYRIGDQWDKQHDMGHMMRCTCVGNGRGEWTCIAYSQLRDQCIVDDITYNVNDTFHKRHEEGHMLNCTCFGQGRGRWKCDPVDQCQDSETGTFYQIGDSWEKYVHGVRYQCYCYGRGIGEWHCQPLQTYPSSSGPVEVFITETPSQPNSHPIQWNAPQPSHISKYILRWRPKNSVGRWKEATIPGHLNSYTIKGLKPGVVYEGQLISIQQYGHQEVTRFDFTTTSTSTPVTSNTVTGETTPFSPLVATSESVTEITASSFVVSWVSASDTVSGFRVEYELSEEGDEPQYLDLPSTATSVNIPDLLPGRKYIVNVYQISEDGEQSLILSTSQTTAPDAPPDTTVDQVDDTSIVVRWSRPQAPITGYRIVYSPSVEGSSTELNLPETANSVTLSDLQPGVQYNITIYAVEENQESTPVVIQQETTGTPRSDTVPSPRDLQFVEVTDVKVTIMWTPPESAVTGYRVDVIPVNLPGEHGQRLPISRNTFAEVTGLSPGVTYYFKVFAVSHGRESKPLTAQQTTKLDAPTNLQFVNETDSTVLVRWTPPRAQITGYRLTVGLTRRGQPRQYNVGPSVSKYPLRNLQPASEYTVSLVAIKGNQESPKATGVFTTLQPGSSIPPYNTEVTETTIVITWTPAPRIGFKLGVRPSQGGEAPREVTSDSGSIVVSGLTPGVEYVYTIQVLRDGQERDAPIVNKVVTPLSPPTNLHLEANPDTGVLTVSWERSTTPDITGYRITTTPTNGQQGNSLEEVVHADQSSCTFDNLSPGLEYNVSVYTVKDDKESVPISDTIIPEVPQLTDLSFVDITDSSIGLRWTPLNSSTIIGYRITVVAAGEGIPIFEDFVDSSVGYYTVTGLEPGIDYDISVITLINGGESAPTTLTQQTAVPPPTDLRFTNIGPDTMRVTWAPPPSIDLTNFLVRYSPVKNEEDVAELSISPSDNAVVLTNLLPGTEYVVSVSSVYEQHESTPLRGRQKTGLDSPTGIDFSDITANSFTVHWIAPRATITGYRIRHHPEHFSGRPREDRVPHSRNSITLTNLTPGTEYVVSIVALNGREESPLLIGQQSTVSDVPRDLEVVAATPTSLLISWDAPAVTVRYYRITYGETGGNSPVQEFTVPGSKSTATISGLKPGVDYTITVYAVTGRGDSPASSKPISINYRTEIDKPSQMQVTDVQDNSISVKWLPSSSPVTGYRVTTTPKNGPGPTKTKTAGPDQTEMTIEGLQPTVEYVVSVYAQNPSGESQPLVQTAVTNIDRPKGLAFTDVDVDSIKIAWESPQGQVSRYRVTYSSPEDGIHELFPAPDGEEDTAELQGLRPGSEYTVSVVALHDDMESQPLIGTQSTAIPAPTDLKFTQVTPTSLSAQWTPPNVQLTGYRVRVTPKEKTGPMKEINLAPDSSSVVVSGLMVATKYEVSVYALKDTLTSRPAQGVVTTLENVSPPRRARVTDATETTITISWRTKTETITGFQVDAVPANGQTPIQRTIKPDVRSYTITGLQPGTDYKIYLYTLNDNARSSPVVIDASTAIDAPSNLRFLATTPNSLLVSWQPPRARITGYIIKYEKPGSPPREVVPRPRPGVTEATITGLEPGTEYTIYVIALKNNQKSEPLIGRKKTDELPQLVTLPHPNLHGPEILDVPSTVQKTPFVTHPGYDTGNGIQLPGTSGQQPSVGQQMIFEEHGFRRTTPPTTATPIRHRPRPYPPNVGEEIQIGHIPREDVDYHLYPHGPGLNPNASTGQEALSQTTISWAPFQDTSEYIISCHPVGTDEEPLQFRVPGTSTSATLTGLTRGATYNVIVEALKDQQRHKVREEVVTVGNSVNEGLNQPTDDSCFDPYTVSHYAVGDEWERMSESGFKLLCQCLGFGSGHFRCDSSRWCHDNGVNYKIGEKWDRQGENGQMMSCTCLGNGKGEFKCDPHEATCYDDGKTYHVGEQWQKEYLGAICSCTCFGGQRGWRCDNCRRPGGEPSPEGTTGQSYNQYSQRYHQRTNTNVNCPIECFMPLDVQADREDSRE

B1: R1R2: class II bacterial adhesin derived peptide (SEQ ID NO: 4) that interferes with fibronectin-collagen binding (peptide)
chain: HHHHHHGSGLNGENQKEPEQGERGEAGPPLSGLSGNNQGRPSLPGLNGENQKEPEQGERGEAGPPKSN
modifications: Bacterial adhesin derived peptide R1R2
For B1, in experiment [1], the “concentrations effective at blocking fibronectin-collagen interactions” value fell in the range of 100 to 500 nM. The intimal hyperplasia result in the experiment on human saphenous veins is on record as “attenuate”.
